From publication PMC10328853, “Design and preclinical evaluation of a novel apelin-based PET radiotracer targeting APJ receptor for molecular imaging of angiogenesis” (Angiogenesis, 2023)

Assays:
[1] = system: APJ; conditions: cited from earlier work
Excerpt: In this context, we identified the apelin/APJ system as a relevant molecular target for angiogenesis imaging because of its implication in blood vessels formation by sprouting. The APJ receptor also known as APLNR and AGTRL1 is a class A G-protein-coupled receptor. Apelin is an endogenous ligand of this receptor. The Apelin/APJ system is described as implicated in different pathologies. High levels of APJ mRNA and protein are found respectively in endothelial cells through vessel formation and on sprouting vessels of hypoxic tissues and tumor-associated endothel ...

[2] = system: Matrigel plug mouse model; test: Longitudinal PET/CT follow-up in the Matrigel plug mouse model; assay type: in vivo; conditions: Matrigel mice, n = 7
Protocol: Matrigel plugs were established by subcutaneous dorsal injections of 300 µL Matrigel (Dutscher, Bernolsheim, France) supplemented with 10% fetal bovine serum, to 9-week-old male Swiss mice (Janvier Labs, Le Genest-Saint-Isle, France, n = 12) under 2% isoflurane anesthesia. Seven Matrigel mice underwent small animal PET follow-up, and five others were involved in the in vivo specificity study as described below. […] Small animal PET imaging acquisition lasted 20 min (numbers of iterations: 4, coincidence: 1–3) using a field of view (FOV) of 10 cm. CT parameters were fixed at 35 kV voltage, 300 ms exposure at medium zoom, acquired by semi-circular method on the same FOV as PET. CT attenuation-corrected reconstruction was performed using Nucline software (Mediso, Budapest, Hungary). Tissue uptake values were expressed as a target-to-background (Matrigel-to-muscle) or as an ischemic-to-contralateral hindlimb PET signal ratio.

[3] = molecular target: T1, APJ in Matrigel plug (Mus musculus, UniProt Q9WV08); test: In vivo specificity of PET signal, Matrigel plug mice, baseline or APJ-blocking; conditions: PET 1 h p.i., n = 5
T1 construct: probably related to avascular and acellular contents of Matrigel; from tissue; host or cells: Subcutaneous Matrigel plug in male Swiss mice
T1 sequence (Q9WV08 1-377): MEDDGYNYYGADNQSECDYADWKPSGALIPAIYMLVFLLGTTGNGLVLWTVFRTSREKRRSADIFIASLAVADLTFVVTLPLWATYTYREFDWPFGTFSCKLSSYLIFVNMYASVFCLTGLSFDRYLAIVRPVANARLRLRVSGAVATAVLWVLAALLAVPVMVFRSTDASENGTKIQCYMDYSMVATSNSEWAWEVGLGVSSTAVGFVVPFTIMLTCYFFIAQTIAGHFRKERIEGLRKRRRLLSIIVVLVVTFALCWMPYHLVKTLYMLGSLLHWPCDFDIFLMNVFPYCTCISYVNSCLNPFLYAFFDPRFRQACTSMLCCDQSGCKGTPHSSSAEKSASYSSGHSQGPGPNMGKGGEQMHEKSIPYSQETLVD
Protocol: Matrigel plugs were established by subcutaneous dorsal injections of 300 µL Matrigel (Dutscher, Bernolsheim, France) supplemented with 10% fetal bovine serum, to 9-week-old male Swiss mice (Janvier Labs, Le Genest-Saint-Isle, France, n = 12) under 2% isoflurane anesthesia. Seven Matrigel mice underwent small animal PET follow-up, and five others were involved in the in vivo specificity study as described below.
(§1) Small animal PET imaging acquisition lasted 20 min (number of iterations: 4, coincidence: 1–3) using a field of view (FOV) of 10 cm. CT parameters were fixed at 35 kV voltage, 300 ms exposure at medium zoom, acquired by semi-circular method on the same FOV as PET. CT attenuation-corrected reconstruction was performed using Nucline software (Mediso, Budapest, Hungary). […] Tissue uptake values were expressed as a mean target-to-background PET signal ratio (TBRmean) with background represented by the left gastrocnemius muscle.

[4] = in vivo; conditions: Pietrain, pig, 85 MBq, total radioactivity
Protocol: Attenuation-corrected images were reconstructed using ADW software v4.6 (GE Healthcare, Chicago, Illinois, USA), and PET signal quantifications were performed on CT-based manually drawn volumes of interest (VOIs) using VivoQuant software v.3.5 (InVicro, Boston, MA, USA). Results were decay corrected and expressed as mean ± sd percentage of the injected dose (%ID).

[5] = system: hindlimb ischemia mouse model; test: Longitudinal PET/CT follow-up in the hindlimb ischemia mouse model; assay type: in vivo; conditions: HLI mice, day 7, PET 1 h after i.v. injection, n = 8
Excerpt: Unilateral hindlimb ischemia (HLI) was induced on 9-week-old female Swiss mice (Janvier Labs, n = 8) after femoral artery excision under 2% isoflurane anesthesia as previously described. LASER Doppler perfusion imaging (Perimed, Craponne, France) was used to assess revascularization from day 0 to day 21 after surgery. Perfusion measurements were expressed as an ischemic-to-contralateral ratio of hind limb blood flow normalized to the day of surgery. […] Small animal PET imaging acquisition lasted 20 min (numbers of iterations: 4, coincidence: 1–3) using a field of view (FOV) of 10 cm. CT parameters were fixed at 35 kV voltage, 300 ms exposure at medium zoom, acquired by semi-circular method on the same FOV as PET. CT attenuation-corrected reconstruction was performed using Nucline software (Mediso, Budapest, Hungary). Tissue uptake values were expressed as a target-to-background (Matrigel-to-muscle) or as an ischemic-to-contralateral hindlimb PET signal ratio.

[6] = in vivo; conditions: male, Swiss, mouse, iv, 4.45 MBq, total radioactivity
Protocol: The quantified PET signal in organs was presented as mean ± SD percentage of the decay-corrected injected dose (%ID). Acquisition of small animal dynamic PET/CT was performed for 120 min on a NanoScan PET/CT camera (Mediso, Budapest, Hungary) under 2% isoflurane in medical air anesthesia [PET parameters: numbers of iterations: 4, coincidence: 1–3, field of view (FOV): 10 cm]. CT parameters were fixed at 35 kV voltage, 300 ms exposure at medium zoom, acquired by semi-circular method on the same FOV as PET. CT attenuation-corrected reconstruction was performed using Nucline software (Mediso, Budapest, Hungary) on the following time frames: 0–5 min, 6–10 min, 11–15 min, 16–20 min, 21–25 min, 26–30 min, 31–45 min, 46–60 min, 61–75 min, 76–90 min, 91–105 min, and 106–120 min.

[7] = molecular target: T2, APJ on T84 cells (Homo sapiens, UniProt P35414); test: In vitro specificity of [68Ga]Ga-AP747 by autoradiography, with and without excess apelin-F13A; assay type: cell-based; conditions: 1 h incubation, n = 6
T2 construct: endogenous in cells; host or cells: T84 human colon adenocarcinoma cells
T2 sequence (P35414 1-380): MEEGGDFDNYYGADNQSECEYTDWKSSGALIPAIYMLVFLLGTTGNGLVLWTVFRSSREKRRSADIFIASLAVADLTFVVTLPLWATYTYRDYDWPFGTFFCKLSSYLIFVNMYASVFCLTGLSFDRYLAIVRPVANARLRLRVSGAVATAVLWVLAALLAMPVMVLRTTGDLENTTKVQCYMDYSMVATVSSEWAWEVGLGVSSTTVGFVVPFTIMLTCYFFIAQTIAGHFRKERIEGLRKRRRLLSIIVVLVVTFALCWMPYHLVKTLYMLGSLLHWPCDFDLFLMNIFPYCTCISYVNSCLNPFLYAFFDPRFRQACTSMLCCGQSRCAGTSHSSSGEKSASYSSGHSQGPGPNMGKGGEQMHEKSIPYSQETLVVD
Protocol: T84 cells were seeded at a 1.10^6 cells per well density in 24-well plates (Corning, Corning, USA) and incubated overnight with a complete medium. […] After a 1 h incubation, the medium was removed and the cells were washed 3 times with PBS (Eurobio-scientific, Les Ulis, France) and their viability assessed.

[8] = molecular target: T3, APJ in T84 tumors (Homo sapiens, UniProt P35414); test: In vivo specificity of PET signal, T84 colon adenocarcinoma xenograft mice, baseline or APJ-blocking; parameters: species or system mouse; conditions: PET 1 h p.i., n = 3
T3 construct: Mice bearing ectopic colon adenocarcinoma xenograft; from tissue; host or cells: T84 xenograft tumour in Swiss nude mice
T3 sequence (P35414 1-380): T2 sequence (P35414 1-380)
Protocol: Human colon adenocarcinoma xenografts were established by subcutaneous dorsal injections of 1.10^6 T84 cells (100 µL, PBS) to 6-week-old male Swiss nude mice (Charles River, Saint-Germain-Nuelles, France, n = 3) under 2% isoflurane anesthesia.
as §1

[9] = mouse, in vivo, iv
Protocol: Blood was collected at 2, 5, 10, 15, 20, 30, 45, 60, 75, 90, 105, and 120 min post-injection and gamma counted with decay correction. Plasmatic half-life (t1/2) was estimated by nonlinear regression. At two hours post-injection, mice were euthanatized and the main organs (heart, liver, lungs, muscle, brain, spleen, intestines, bone, pancreas, and kidneys) were collected, washed in PBS, weighted, and gamma counted. Results were decay corrected and expressed as percentage of injected dose corrected by organ weight (%ID/g).

[10] = 100X apelin-F13A (100 µg) i.v. 30 min before tracer

Molecule: [Ala13]-Apelin-13 [apelin-F13A]
- affinity for APJ [1]: nanomolar affinity

Molecule: CSCC[C@H](NC(=O)[C@@H]1CCCN1C(=O)CNC(=O)[C@H](CCCCNC(=O)CCC(C(=O)O)N1CCN(CC(=O)O)CCN(CC(=O)O)CC1)NC(=O)[C@H](Cc1c[nH]cn1)NC(=O)[C@H](CO)NC(=O)[C@H](CC(C)C)NC(=O)[C@H](CCCNC(=N)N)NC(=O)[C@@H]1CCCN1C(=O)[C@H](CCCNC(=N)N)NC(=O)[C@H](CCC(N)=O)NC(=O)CCC(C(=O)O)N1CCN(CC(=O)O)CCN(CC(=O)O)CC1)C(=O)N1CCC[C@H]1C(=O)N[C@@H](C)C(=O)O (some centres unmarked) [[^68Ga]Ga-AP747, metal not drawn]
- target-to-background (Matrigel-to-muscle) PET signal ([2]; day 10, PET 1 h after i.v. injection): 3.78 ± 2.11
- target-to-background (Matrigel-to-muscle) PET signal ([2]; day 13, PET 1 h after i.v. injection): 4.86 ± 2.49
- target-to-background (Matrigel-to-muscle) PET signal ([2]; day 21, PET 1 h after i.v. injection): 5.00 ± 3.04
- PET Matrigel-to-muscle ratio, blocking [3, 10]: 2.35 ± 0.62
- PET Matrigel-to-muscle ratio, non-blocked ([3]; i.v.): 7.29 ± 3.14
- tissue uptake dose at 2 h ([4]; PET signal in bladder): 39.4 ± 8.54 %ID
- tissue uptake dose at 2 h ([4]; PET signal in brain): 0.037 ± 0.015 %ID
- tissue uptake dose at 2 h ([4]; PET signal in heart): 0.58 ± 0.16 %ID
- tissue uptake dose at 2 h ([4]; PET signal in kidneys): 3.98 ± 0.79 %ID
- tissue uptake dose at 2 h ([4]; PET signal in liver): 1.42 ± 0.34 %ID
- tissue uptake dose at 2 h ([4]; PET signal in lungs): 1.39 ± 0.46 %ID
- i/c (ischemic-to-contralateral hindlimb) PET signal ratio [5]: 5.49 ± 5.97
- tissue uptake dose at 2 h ([6]; PET signal in bladder): 88.3 ± 5 %ID
- tissue uptake dose at 2 h ([6]; PET signal in brain): 0.02 ± 0.001 %ID
- tissue uptake dose at 2 h ([6]; PET signal in kidneys): 1.04 ± 0.2 %ID
- tissue uptake dose at 2 h ([6]; PET signal in liver): 0.35 ± 0.03 %ID
- tissue uptake dose at 2 h ([6]; PET signal in lungs): 0.06 ± 0.02 %ID
- cell-to-background autoradiography signal ratio, non-blocked ([7]; 1.7 MBq/10 µL per well): 1.40 ± 0.38
- cell-to-background autoradiography signal ratio, blocking ([7]; large excess of apelin-F13A added 10 min before tracer): 0.50 ± 0.23
- PET tumor-to-muscle ratio, blocking [8, 10]: 1.02 ± 0.31
- PET tumor-to-muscle ratio, non-blocked ([8]; i.v.): 7.93 ± 2.17
- Plasmatic half-life (t1/2) [9]: 13.31 min
